According to the supplement of paper PMC10065799, “High-throughput profiling of sequence recognition by tyrosine kinases and SH2 domains using bacterial peptide display” (eLife, 2023):

test system: AncSZ; assay: phosphorylation enrichment, bacterial display (enrichment ratio); higher = better substrate or ligand; peptides without Tyr show the background
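Further: 11-residue human phosphosite peptides and single-mutation variants displayed on the E. coli surface, counted by deep sequencing, each peptide's frequency after selection divided by its frequency in the unselected input library; frequency after pTyr selection over input frequency; kinase dosed for 20-30% of maximal phosphorylation in three min.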

Sequence	phosphorylation enrichment
EQLGEYKFQNA [ALB_Y425]	0.824
QITQVCGFFDE [PPP2CA_Y127_Y127C_YF]	1.56
RHTRSYDFTEG [FGF7_Y56_M59T_YF]	0.557
RLSVDYSKKSK [TUBA3E_Y161]	0.515
LDFNEYFRGLN [HPRT1_Y198_D201G_YF]	1.29
NFFDTCIKTCL [IQGAP2_Y1445_Y1445C_YF]	0.809
IGDENYGEGSS [ACO2_Y665]	1.25
GIVEEYQLPFF [BMPR1A_Y453_YF]	3.31
MCITRYERESQ [PRNP_Y218_Q217R]	1.03
KREPQYSSHSS [SIPA1L3_Y1265_G1261R]	0.559
TTKGSYSLSVR [HCK_Y180]	0.674
AAYNKYDQERF [CDC73_Y293_R292K]	0.54
VSFGEYRFRSV [CFTR_Y515_D513G_YF]	0.668
LAARFYNWVCF [FLT4_Y1231_S1235C_YF]	1.87
CTTVHYNFMCN [TP53_Y234_I232V_YF]	0.769
FSPFDYQPCLA [TNS1_Y798_YF]	1.39
WFQTKYEELQV [KRT6B_Y360_I365V_YF]	0.915

Sequence	phosphorylation enrichment
LPKDLYLISQM [LARP4_Y141_S137P]	2.15
KLNNEHLELNY [MME_Y497_Y497H]	0.775
CTTTHYNYMCN [TP53_Y234_I232T]	0.708
CEAMEYPESKQ [BTK_Y511_L512P]	1.28
RARPPYTVAAD [ANKZF1_Y572]	0.551
MANYMYKAGPS [MAML2_Y515]	0.636
GQLIVYAPPEW [CNTN6_Y315_F314V]	1.02
KVASVYEAPGF [NT5C_Y65]	0.973
LKMLVYLDMSK [LRRC7_Y234]	1.36
QSSALYEDHFL [ASS1_Y83_R86H_YF]	1.07
HFGCIYHGTLL [MET_Y1093_V1092I]	1.4
ERTIEYLEEVA [HADHA_Y239]	1.28
FKEVVYQAMEE [TACC3_Y684_E680K]	1.55
DGQVNYEGFVQ [CALM1_Y139_E141G]	0.996
TVHPGYGFLSE [PCCA_Y143_A138T]	0.717
ASFPLYEPAKM [MKI67_Y340]	0.789

target: EPHB1 (UniProt P54762); assay: as above
Sequence (P54762 whole entry, looked up): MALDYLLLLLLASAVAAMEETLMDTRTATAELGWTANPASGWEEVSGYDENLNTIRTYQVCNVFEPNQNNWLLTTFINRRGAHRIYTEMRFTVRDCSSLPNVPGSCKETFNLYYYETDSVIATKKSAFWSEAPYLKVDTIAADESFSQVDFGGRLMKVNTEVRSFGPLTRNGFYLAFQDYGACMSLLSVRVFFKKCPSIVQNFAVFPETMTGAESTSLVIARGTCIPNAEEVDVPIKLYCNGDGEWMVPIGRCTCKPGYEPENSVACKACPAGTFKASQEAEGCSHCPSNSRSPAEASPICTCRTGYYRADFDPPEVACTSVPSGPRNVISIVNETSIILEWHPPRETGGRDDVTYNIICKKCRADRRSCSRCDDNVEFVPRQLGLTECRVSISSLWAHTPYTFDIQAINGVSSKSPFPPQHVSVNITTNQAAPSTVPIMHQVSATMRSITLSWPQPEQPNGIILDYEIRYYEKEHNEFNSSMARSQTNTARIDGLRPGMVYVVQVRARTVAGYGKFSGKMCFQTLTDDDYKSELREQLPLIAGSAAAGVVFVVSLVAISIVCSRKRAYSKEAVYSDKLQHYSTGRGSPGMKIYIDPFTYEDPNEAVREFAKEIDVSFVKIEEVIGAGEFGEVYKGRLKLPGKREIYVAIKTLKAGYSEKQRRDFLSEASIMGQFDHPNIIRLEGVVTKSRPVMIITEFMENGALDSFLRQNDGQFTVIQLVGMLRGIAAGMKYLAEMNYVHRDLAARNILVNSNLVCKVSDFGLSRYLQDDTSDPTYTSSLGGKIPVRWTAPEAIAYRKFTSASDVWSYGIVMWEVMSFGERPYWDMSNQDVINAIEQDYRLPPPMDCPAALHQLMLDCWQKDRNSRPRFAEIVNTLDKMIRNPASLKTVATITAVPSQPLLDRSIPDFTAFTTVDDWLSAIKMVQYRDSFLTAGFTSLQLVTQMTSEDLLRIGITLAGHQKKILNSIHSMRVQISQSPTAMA

Sequence	phosphorylation enrichment
EQLGEYKFQNA [ALB_Y425]	0.461
QITQVCGFFDE [PPP2CA_Y127_Y127C_YF]	0.645
RHTRSYDFTEG [FGF7_Y56_M59T_YF]	0.377
RLSVDYSKKSK [TUBA3E_Y161]	1.09
LDFNEYFRGLN [HPRT1_Y198_D201G_YF]	0.832
NFFDTCIKTCL [IQGAP2_Y1445_Y1445C_YF]	0.484
IGDENYGEGSS [ACO2_Y665]	0.511
GIVEEYQLPFF [BMPR1A_Y453_YF]	0.599
MCITRYERESQ [PRNP_Y218_Q217R]	0.429
KREPQYSSHSS [SIPA1L3_Y1265_G1261R]	0.423
TTKGSYSLSVR [HCK_Y180]	0.448
AAYNKYDQERF [CDC73_Y293_R292K]	0.364
VSFGEYRFRSV [CFTR_Y515_D513G_YF]	0.431
LAARFYNWVCF [FLT4_Y1231_S1235C_YF]	1.33
CTTVHYNFMCN [TP53_Y234_I232V_YF]	0.458
FSPFDYQPCLA [TNS1_Y798_YF]	0.775
WFQTKYEELQV [KRT6B_Y360_I365V_YF]	0.462

Sequence	phosphorylation enrichment
LPKDLYLISQM [LARP4_Y141_S137P]	0.784
KLNNEHLELNY [MME_Y497_Y497H]	0.402
CTTTHYNYMCN [TP53_Y234_I232T]	0.563
CEAMEYPESKQ [BTK_Y511_L512P]	0.676
RARPPYTVAAD [ANKZF1_Y572]	0.4
MANYMYKAGPS [MAML2_Y515]	1.32
GQLIVYAPPEW [CNTN6_Y315_F314V]	0.574
KVASVYEAPGF [NT5C_Y65]	3.77
LKMLVYLDMSK [LRRC7_Y234]	1.01
QSSALYEDHFL [ASS1_Y83_R86H_YF]	5.92
HFGCIYHGTLL [MET_Y1093_V1092I]	0.714
ERTIEYLEEVA [HADHA_Y239]	0.593
FKEVVYQAMEE [TACC3_Y684_E680K]	1.06
DGQVNYEGFVQ [CALM1_Y139_E141G]	1.31
TVHPGYGFLSE [PCCA_Y143_A138T]	0.455
ASFPLYEPAKM [MKI67_Y340]	18.1

target: EPHB2 (UniProt P29323); assay: as above
Sequence (P29323 whole entry, looked up): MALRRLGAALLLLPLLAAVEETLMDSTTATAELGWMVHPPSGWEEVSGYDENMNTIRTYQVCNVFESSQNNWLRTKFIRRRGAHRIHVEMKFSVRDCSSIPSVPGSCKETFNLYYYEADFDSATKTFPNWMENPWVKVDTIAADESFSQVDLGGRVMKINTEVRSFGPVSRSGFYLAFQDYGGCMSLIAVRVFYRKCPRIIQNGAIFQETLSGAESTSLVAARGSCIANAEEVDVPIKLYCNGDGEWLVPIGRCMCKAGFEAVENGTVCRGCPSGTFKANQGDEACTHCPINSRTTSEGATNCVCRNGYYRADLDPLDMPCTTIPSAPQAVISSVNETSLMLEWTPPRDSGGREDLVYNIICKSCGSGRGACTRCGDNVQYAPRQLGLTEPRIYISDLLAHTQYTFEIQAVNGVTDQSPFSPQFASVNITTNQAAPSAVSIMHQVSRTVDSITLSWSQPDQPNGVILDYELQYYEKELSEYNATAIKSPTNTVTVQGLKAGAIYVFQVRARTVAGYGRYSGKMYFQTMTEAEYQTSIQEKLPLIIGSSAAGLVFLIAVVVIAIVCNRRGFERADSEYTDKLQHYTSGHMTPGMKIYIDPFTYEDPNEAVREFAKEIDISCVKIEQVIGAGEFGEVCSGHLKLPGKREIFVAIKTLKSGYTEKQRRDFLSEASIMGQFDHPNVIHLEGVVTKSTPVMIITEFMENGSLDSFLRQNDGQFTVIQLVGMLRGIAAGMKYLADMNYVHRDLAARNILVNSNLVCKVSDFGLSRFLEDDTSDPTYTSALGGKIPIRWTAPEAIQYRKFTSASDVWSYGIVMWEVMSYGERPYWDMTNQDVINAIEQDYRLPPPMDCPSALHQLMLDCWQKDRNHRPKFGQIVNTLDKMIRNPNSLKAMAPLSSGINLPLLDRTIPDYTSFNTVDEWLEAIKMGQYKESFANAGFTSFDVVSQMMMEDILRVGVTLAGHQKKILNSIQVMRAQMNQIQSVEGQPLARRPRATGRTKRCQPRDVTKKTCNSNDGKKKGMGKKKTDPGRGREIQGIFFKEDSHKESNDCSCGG

Sequence	phosphorylation enrichment
EQLGEYKFQNA [ALB_Y425]	0.415
QITQVCGFFDE [PPP2CA_Y127_Y127C_YF]	0.871
RHTRSYDFTEG [FGF7_Y56_M59T_YF]	0.492
RLSVDYSKKSK [TUBA3E_Y161]	0.389
LDFNEYFRGLN [HPRT1_Y198_D201G_YF]	1.41
NFFDTCIKTCL [IQGAP2_Y1445_Y1445C_YF]	0.491
IGDENYGEGSS [ACO2_Y665]	0.606
GIVEEYQLPFF [BMPR1A_Y453_YF]	0.724
MCITRYERESQ [PRNP_Y218_Q217R]	0.528
KREPQYSSHSS [SIPA1L3_Y1265_G1261R]	0.306
TTKGSYSLSVR [HCK_Y180]	0.43
AAYNKYDQERF [CDC73_Y293_R292K]	0.335
VSFGEYRFRSV [CFTR_Y515_D513G_YF]	0.443
LAARFYNWVCF [FLT4_Y1231_S1235C_YF]	1.03
CTTVHYNFMCN [TP53_Y234_I232V_YF]	0.52
FSPFDYQPCLA [TNS1_Y798_YF]	0.715
WFQTKYEELQV [KRT6B_Y360_I365V_YF]	0.525

Sequence	phosphorylation enrichment
LPKDLYLISQM [LARP4_Y141_S137P]	0.757
KLNNEHLELNY [MME_Y497_Y497H]	0.452
CTTTHYNYMCN [TP53_Y234_I232T]	0.592
CEAMEYPESKQ [BTK_Y511_L512P]	0.735
RARPPYTVAAD [ANKZF1_Y572]	0.378
MANYMYKAGPS [MAML2_Y515]	0.963
GQLIVYAPPEW [CNTN6_Y315_F314V]	1.66
KVASVYEAPGF [NT5C_Y65]	5.62
LKMLVYLDMSK [LRRC7_Y234]	0.805
QSSALYEDHFL [ASS1_Y83_R86H_YF]	4.17
HFGCIYHGTLL [MET_Y1093_V1092I]	0.951
ERTIEYLEEVA [HADHA_Y239]	0.704
FKEVVYQAMEE [TACC3_Y684_E680K]	0.814
DGQVNYEGFVQ [CALM1_Y139_E141G]	1.01
TVHPGYGFLSE [PCCA_Y143_A138T]	0.467
ASFPLYEPAKM [MKI67_Y340]	21.1

target: FGFR1 (UniProt P11362); assay: as above
Sequence (P11362 whole entry, looked up): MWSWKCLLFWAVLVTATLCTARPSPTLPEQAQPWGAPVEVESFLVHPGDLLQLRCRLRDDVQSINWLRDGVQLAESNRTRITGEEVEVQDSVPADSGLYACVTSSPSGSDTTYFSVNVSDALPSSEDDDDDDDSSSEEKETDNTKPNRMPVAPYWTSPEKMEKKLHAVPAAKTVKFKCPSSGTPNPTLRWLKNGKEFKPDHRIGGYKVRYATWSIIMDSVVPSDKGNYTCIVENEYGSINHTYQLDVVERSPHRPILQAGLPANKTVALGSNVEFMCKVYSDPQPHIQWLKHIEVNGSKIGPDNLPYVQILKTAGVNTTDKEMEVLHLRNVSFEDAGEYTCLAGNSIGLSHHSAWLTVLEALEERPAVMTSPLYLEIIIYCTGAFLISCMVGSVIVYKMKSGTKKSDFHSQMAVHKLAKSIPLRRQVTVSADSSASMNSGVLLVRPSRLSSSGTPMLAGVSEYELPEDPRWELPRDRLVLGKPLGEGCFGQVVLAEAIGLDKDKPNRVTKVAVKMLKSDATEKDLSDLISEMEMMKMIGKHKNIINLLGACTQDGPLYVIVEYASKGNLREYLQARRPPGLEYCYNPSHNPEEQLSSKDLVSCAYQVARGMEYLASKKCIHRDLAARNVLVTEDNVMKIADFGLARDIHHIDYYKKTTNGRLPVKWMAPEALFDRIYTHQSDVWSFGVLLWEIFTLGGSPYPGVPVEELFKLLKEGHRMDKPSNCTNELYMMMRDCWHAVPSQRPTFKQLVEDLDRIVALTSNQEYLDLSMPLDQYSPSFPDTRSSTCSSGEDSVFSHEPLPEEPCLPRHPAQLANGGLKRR

Sequence	phosphorylation enrichment
EQLGEYKFQNA [ALB_Y425]	0.471
QITQVCGFFDE [PPP2CA_Y127_Y127C_YF]	0.5
RHTRSYDFTEG [FGF7_Y56_M59T_YF]	0.411
RLSVDYSKKSK [TUBA3E_Y161]	0.373
LDFNEYFRGLN [HPRT1_Y198_D201G_YF]	0.788
NFFDTCIKTCL [IQGAP2_Y1445_Y1445C_YF]	0.476
IGDENYGEGSS [ACO2_Y665]	0.533
GIVEEYQLPFF [BMPR1A_Y453_YF]	0.812
MCITRYERESQ [PRNP_Y218_Q217R]	0.433
KREPQYSSHSS [SIPA1L3_Y1265_G1261R]	0.377
TTKGSYSLSVR [HCK_Y180]	0.558
AAYNKYDQERF [CDC73_Y293_R292K]	0.332
VSFGEYRFRSV [CFTR_Y515_D513G_YF]	0.523
LAARFYNWVCF [FLT4_Y1231_S1235C_YF]	1.65
CTTVHYNFMCN [TP53_Y234_I232V_YF]	0.472
FSPFDYQPCLA [TNS1_Y798_YF]	1.01
WFQTKYEELQV [KRT6B_Y360_I365V_YF]	0.478

Sequence	phosphorylation enrichment
LPKDLYLISQM [LARP4_Y141_S137P]	1.15
KLNNEHLELNY [MME_Y497_Y497H]	0.437
CTTTHYNYMCN [TP53_Y234_I232T]	0.551
CEAMEYPESKQ [BTK_Y511_L512P]	0.571
RARPPYTVAAD [ANKZF1_Y572]	0.39
MANYMYKAGPS [MAML2_Y515]	0.465
GQLIVYAPPEW [CNTN6_Y315_F314V]	0.513
KVASVYEAPGF [NT5C_Y65]	0.481
LKMLVYLDMSK [LRRC7_Y234]	0.347
QSSALYEDHFL [ASS1_Y83_R86H_YF]	0.654
HFGCIYHGTLL [MET_Y1093_V1092I]	0.984
ERTIEYLEEVA [HADHA_Y239]	0.608
FKEVVYQAMEE [TACC3_Y684_E680K]	0.771
DGQVNYEGFVQ [CALM1_Y139_E141G]	0.496
TVHPGYGFLSE [PCCA_Y143_A138T]	0.393
ASFPLYEPAKM [MKI67_Y340]	0.426
